Test results: patent US20240058446A1, “CHIMERIC TIM4 RECEPTORS AND USES THEREOF” (CERO THERAPEUTICS, INC., priority 2019, published 2024)

What was measured:
[1] = test system: JeKo-1 mantle cell lymphoma cells; test: Incucyte co-culture of chimeric Tim4 receptor T cells with JeKo-1 mCherry+ cells; type: cell-based; conditions: 1:1 E:T ratio; T cells transduced with 5MOI; FIG. 17
Protocol: FIG. 17. Multiple chimeric Tim4 constructs eliminate ibrutinib treated JeKo-1 cells. T cells generated from healthy donor PBMCs were transduced with 5MOI of CTX137, CTX140, CTX143, or CTX156 (tEGFR control). Cells were cocultured at a 1:1 E:T ratio with Jeko-1 mCherry+ cells. Surviving Jeko-1 mCherry+ cells were counted every 2 hours and normalized to the count at 2 h. Wells were plated in duplicate. Error bars represent +/−SEM.
Chimeric Tim4 receptor (CTX137, CTX140, or CTX143) modified T cells were generated from healthy donor PBMCs. CD4+ and CD8+ T cells were isolated and mixed at a 1:1 ratio, then stimulated overnight with TransACT. Activated T cells were transduced with 5MOI of the indicated construct. Cells were used for Incucyte experiments 6 days after transduction. JeKo-1 mCherry+ cells were plated with chimeric Tim4 receptor-T cells at a 1:1 effector:target (E:T) ratio. Surviving Jeko-1 mCherry+ cells were counted every 2 hours and normalized to the count at 2 h. Wells were plated in duplicate.

[2] = test system: JeKo-1 mantle cell lymphoma cells; test: Incucyte killing of ibrutinib pre-treated JeKo-1 mCherry+ cells by chimeric Tim4 receptor T cells; type: cell-based; conditions: JeKo-1 pre-treated with 25 μM ibrutinib for 20 hours; 2:1 effector:target ratio; 0.5 μM ibrutinib present; FIG. 16
Protocol: FIG. 16. Chimeric Tim4 receptor killing of ibrutinib pre-treated JeKo-1 cells. JeKo-1 mantle cell lymphoma cells engineered to express mCherry were pre-treated with 25 μM ibrutinib for 20 hours. T cells transduced with chimeric Tim4 receptor (CTX137) or CTX156 (tEGFR control) were co-cultured at a 2:1 effector:target ratio with JeKo-1 cells mCherry+ cells in the presence of 0.5 μM ibrutinib. Surviving JeKo-1 mCherry+ cells were counted every 2 hours and normalized to the count at 2 h. Wells were plated in duplicate. Error bars represent +/−SEM.
Chimeric Tim4 receptor-T cells were generated from healthy donor PBMCs. CD4+ and CD8+ T cells were isolated and mixed at a 1:1 ratio, then stimulated overnight with TransACT. Activated T cells were transduced with 5MOI of the indicated construct (CTX137 or CTX156). Cells were used for Incucyte experiments 6 days after transduction. JeKo-1 cells engineered to express mCherry were treated with 25 μM BTK inhibitor ibrutinib for 20 hours then washed. T cells and target cells were incubated at a 2:1 effector:target ratio in the presence of 0.5 μM ibrutinib. Surviving JeKo-1 mChery+ cells were counted every 2 hours and normalized to the count at 2 hours. Wells were plated in duplicate.

[3] = test system: Jeko-1 MCL tumor; test: JeKo-1 fLuc+ tumor model, chimeric Tim4 receptor T cells plus ibrutinib, bioluminescence imaging; type: in vivo; conditions: NSG mice, 1e6 Jeko-1 fLuc+ i.v.; ibrutinib 125 mg/kg daily for 3 days, then 1e6 T cells i.v. and 8 mg/kg ibrutinib daily; FIG. 18
Protocol: FIG. 18. […] NSG mice were inoculated i.v. with 1e6 Jeko-1 fLuc+ cells. 4 days after inoculation, mice were dosed daily with 125 mg/kg ibrutinib by oral gavage for 3 days. 7 days after inoculation, 1e6 chimeric Tim4 receptor-T cells were infused i.v. Following T cell infusion, mice were dosed daily with 8 mg/kg ibrutinib. N=10 mice per group. Chimeric Tim4 receptor-T cells were generated from healthy donor PBMCs. CD4+ and CD8+ T cells were isolated and mixed at a 1:1 ratio, then stimulated overnight with TransACT. Activated T cells were transduced with 5MOI of the indicated construct (CTX137, CTX140, or CTX156). Cells were used for Incucyte experiments 7 days after transduction. NSG mice were inoculated intravenously with 1e6 Jeko-1 fLuc+ cells. Mice were dosed with 125 mg/kg of Ibrutinib by oral gavage daily for 3 days, then transfused with 1e6 CER-T cells and dosed daily with 8 mg/kg Ibrutinib for the duration of the experiment. Tumor growth was monitored by bioluminescence imaging (BLI) (sum of photons from 8 sec exposure). n=10 for each group.

Molecule	elimination of JeKo-1 cells (surviving mCherry+ cells normalized to count at 2 h) [1]	killing of ibrutinib pretreated JeKo-1 cells (surviving mCherry+ cells normalized to count at 2 h) [2]	protection against JeKo-1 tumor (tumor growth by BLI) [3]
CTX137: Chimeric Tim4 receptor (SEQ ID NO:68): Tim4 binding domain, CD28 transmembrane, CD28 costimulatory, DAP12 signaling domain; expressed in T cells (protein, Tim4 binding domain-CD28 transmembrane-CD28 costimulatory signaling domain-DAP12 signaling domain; SIGNAL (1)..(24), expressed in T cells) MSKEPLILWLMIEFWWLYLTPVTSETVVTEVLGHRVTLPCLYSSWSHNSNSMCWGKDQCPYSGCKEALIRTDGMRVTSRKSAKYRLQGTIPRGDVSLTILNPSESDSGVYCCRIEVPGWFNDVKINVRLNLQRASTTTHRTATTTTRRTTTTSPTTTRQMTTTPAALPTTVVTTPDLTTGTPLQMTTIAVFTTANTCLSLTPSTLPEEATGLLTPEPSKEGPILTAESETVLPSDSWSSVESTSADTVLLTSKESKVWDLPSTSHVSMWKTSDSVSSPQPGASDTAVPEQNKTTKTGQMDGIPMSMKNEMPISQFWVLVVVGGVLACYSLLVTVAFIIFWVRSKRSRLLHSDYMNMTPRRPGPTRKHYQPYAPPRDFAAYRSYFLGRLVPRGRGAAEAATRKQRITETESPYQELQGQRSDVYSDLNTQRPYYK	eliminate JeKo-1 mantle cell lymphoma cells	induced killing	provide early protection
CTX140: Chimeric Tim4 receptor (SEQ ID NO:44): Tim4 binding domain, CD28 hinge, CD28 transmembrane, CD28 costimulatory, DAP12 signaling domain (protein, Tim4 binding domain-CD28 hinge-CD28 transmembrane-CD28 costimulatory signaling domain-DAP12 signaling domain; SIGNAL (1)..(24)) MSKEPLILWLMIEFWWLYLTPVTSETVVTEVLGHRVTLPCLYSSWSHNSNSMCWGKDQCPYSGCKEALIRTDGMRVTSRKSAKYRLQGTIPRGDVSLTILNPSESDSGVYCCRIEVPGWFNDVKINVRLNLQRASTTTHRTATTTTRRTTTTSPTTTRQMTTTPAALPTTVVTTPDLTTGTPLQMTTIAVFTTANTCLSLTPSTLPEEATGLLTPEPSKEGPILTAESETVLPSDSWSSVESTSADTVLLTSKESKVWDLPSTSHVSMWKTSDSVSSPQPGASDTAVPEQNKTTKTGQMDGIPMSMKNEMPISQIEVMYPPPYLDNEKSNGTIIHVKGKHLCPSPLFPGPSKPFWVLVVVGGVLACYSLLVTVAFIIFWVRSKRSRLLHSDYMNMTPRRPGPTRKHYQPYAPPRDFAAYRSYFLGRLVPRGRGAAEAATRKQRITETESPYQELQGQRSDVYSDLNTQRPYYK	eliminate JeKo-1 mantle cell lymphoma cells		provide early protection
CTX143: Chimeric Tim4 receptor (SEQ ID NO:45): Tim4 binding domain, modified IgG4 hinge, CD28 transmembrane, CD28 costimulatory, DAP12 signaling domain (protein, Tim4 binding domain-modified IgG4 hinge-CD28 transmembrane-CD28 costimulatory signaling domain-DAP12 signaling domain; SIGNAL (1)..(24)) MSKEPLILWLMIEFWWLYLTPVTSETVVTEVLGHRVTLPCLYSSWSHNSNSMCWGKDQCPYSGCKEALIRTDGMRVTSRKSAKYRLQGTIPRGDVSLTILNPSESDSGVYCCRIEVPGWFNDVKINVRLNLQRASTTTHRTATTTTRRTTTTSPTTTRQMTTTPAALPTTVVTTPDLTTGTPLQMTTIAVFTTANTCLSLTPSTLPEEATGLLTPEPSKEGPILTAESETVLPSDSWSSVESTSADTVLLTSKESKVWDLPSTSHVSMWKTSDSVSSPQPGASDTAVPEQNKTTKTGQMDGIPMSMKNEMPISQESKYGPPCPPCPFWVLVVVGGVLACYSLLVTVAFIIFWVRSKRSRLLHSDYMNMTPRRPGPTRKHYQPYAPPRDFAAYRSYFLGRLVPRGRGAAEAATRKQRITETESPYQELQGQRSDVYSDLNTQRPYYK	eliminate JeKo-1 mantle cell lymphoma cells		
